Biological target: T1, hepatocyte nuclear factor 4α (HNF4α) (human (endogenous in HepG2), UniProt P41235 1-474)
T1 sequence (looked up): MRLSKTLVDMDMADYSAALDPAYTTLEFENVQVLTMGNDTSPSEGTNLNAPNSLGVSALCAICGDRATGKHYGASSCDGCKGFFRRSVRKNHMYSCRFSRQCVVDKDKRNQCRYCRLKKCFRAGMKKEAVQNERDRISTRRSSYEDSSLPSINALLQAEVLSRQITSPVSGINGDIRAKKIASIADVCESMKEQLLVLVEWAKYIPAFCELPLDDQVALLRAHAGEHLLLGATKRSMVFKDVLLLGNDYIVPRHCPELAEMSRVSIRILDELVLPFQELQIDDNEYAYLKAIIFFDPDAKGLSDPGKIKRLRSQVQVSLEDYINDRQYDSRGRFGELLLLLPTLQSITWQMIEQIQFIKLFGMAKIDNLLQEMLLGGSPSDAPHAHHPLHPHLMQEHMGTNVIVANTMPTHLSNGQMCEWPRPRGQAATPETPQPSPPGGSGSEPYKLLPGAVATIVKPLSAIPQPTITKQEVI
Test: cell-based or functional assay

activity of a Gal4-HNF4α fusion on the UAS-TKLuc luciferase reporter in HepG2 cells with lipin 1 overexpression: > 3 fold
B1: lipin 1β (924 amino acid form of mouse lipin 1), HA-tagged (natural protein, UniProt Q91ZP3 1-924, looked up)
chain: MNYVGQLAGQVFVTVKELYKGLNPATLSGCIDIIVIRQPNGSLQCSPFHVRFGKMGVLRSREKVVDIEINGESVDLHMKLGDNGEAFFVQETDNDQEIIPMYLATSPILSEGAARMESQLKRNSVDRIRCLDPTTAAQGLPPSDTPSTGSLGKKRRKRRRKAQLDNLKRDDNVNSSEDEDMFPIEMSSDEDTAPMDGSRTLPNDVPPFQDDIPKENFPSISTHPQSASYPSSDREWSPSPSSLVDCQRTPPHLAEGVLSSSCPLQSCHFHASESPSGSRPSTPKSDSELVSKSADRLTPKNNLEMLWLWGELPQAAKSSSPHKMKESSPLGSRKTPDKMNFQAIHSESSDTFSDQSPTMARGLLIHQSKAQTEMQFVNEEDLESLGAAAPPSPVAEELKAPYPNTAQSSSKTDSPSRKKDKRSRHLGADGVYLDDLTDMDPEVAALYFPKNGDPGGLPKQASDNGARSANQSPQSVGGSGIDSGVESTSDSLRDLPSIAISLCGGLSDHREITKDAFLEQAVSYQQFADNPAIIDDPNLVVKVGNKYYNWTTAAPLLLAMQAFQKPLPKATVESIMRDKMPKKGGRWWFSWRGRNATIKEESKPEQCLTGKGHNTGEQPAQLGLATRIKHESSSSDEEHAAAKPSGSSHLSLLSNVSYKKTLRLTSEQLKSLKLKNGPNDVVFSVTTQYQGTCRCEGTIYLWNWDDKVIISDIDGTITRSDTLGHILPTLGKDWTHQGIAKLYHKVSQNGYKFLYCSARAIGMADMTRGYLHWVNERGTVLPQGPLLLSPSSLFSALHREVIEKKPEKFKVQCLTDIKNLFFPNTEPFYAAFGNRPADVYSYKQVGVSLNRIFTVNPKGELVQEHAKTNISSYVRLCEVVDHVFPLLKRSHSCDFPCSDTFSNFTFWREPLPPFENQDMHSASA

From paper PMC3517414, “Complex Interplay between the Lipin 1 and the Hepatocyte Nuclear Factor 4 α (HNF4α) Pathways to Regulate Liver Lipid Metabolism” (PLoS ONE, 2012)
